Where a chain is given by its changes, count along the chain named.
B1: h_Nb1 (expressed from pFUSE-hIgG1-Fc) (Fc fusion)
chain: DVQLQESGGGLVQPGGSLRLSCAASGFTFSSYAMSWVRQAPGKGLEWVSDINSGGDNTDYADSVKGRFTISRDNAKNTLYLQMNSLKPEDTAVYYCARGPKLCFSSWGQGTQVTVSS
notes: Candidates were cloned into pFUSE-mIgG2b-Fc and pFUSE-hIgG1-Fc; not shown: human IgG1 Fc as encoded by the pFUSE-hIgG1-Fc vector
B2: h_Nb2 (expressed from pFUSE-hIgG1-Fc) (Fc fusion)
chain: DVQLQESGGGLVQPGGSLRLSCAASGFTFGDRWMYWLRQAPGKGLEWVSSINPAGRSTYYADSVKGRFTISRDNAKNTLYLQMNSLKSEDTAVYYCTKDPGGYQKGQGTQVTVSS
notes: as for B1
B3: h_Nb1_A61K (VHH)
VHH: B1 chain with A61K
notes: also called 74
B4: h_Nb1_A61N (VHH)
VHH: B1 chain with A61N
notes: also called 72
B5: h_Nb1_A61Q (VHH)
VHH: B1 chain with A61Q
notes: also called 73
B6: h_Nb1_C103K (VHH)
VHH: B1 chain with C103K
notes: also called 80
B7: h_Nb1_C103M (VHH)
VHH: B1 chain with C103M
notes: also called 81
B8: h_Nb1_C103W (VHH)
VHH: B1 chain with C103W
notes: also called 82
B9: h_Nb1_D59F (VHH)
VHH: B1 chain with D59F
notes: also called 77
B10: h_Nb1_D59M (VHH)
VHH: B1 chain with D59M
notes: also called 76
B11: h_Nb1_D59R (VHH)
VHH: B1 chain with D59R
notes: also called 75
B12: h_Nb1_D62W (VHH)
VHH: B1 chain with D62W
notes: also called 78
B13: h_Nb1_D62Y (VHH)
VHH: B1 chain with D62Y
notes: also called 79
B14: h_Nb1_G99Q (VHH)
VHH: B1 chain with G99Q
notes: also called 84
B15: h_Nb1_G99R (VHH)
VHH: B1 chain with G99R
notes: also called 83
B16: h_Nb1_G99W (VHH)
VHH: B1 chain with G99W
notes: also called 85
B17: h_Nb1_G99Y (VHH)
VHH: B1 chain with G99Y
notes: also called 86
B18: h_Nb2_F29R (VHH)
VHH: B2 chain with F29R
notes: also called 93
B19: h_Nb2_F29W (VHH)
VHH: B2 chain with F29W
notes: also called 94
B20: h_Nb2_G30F (VHH)
VHH: B2 chain with G30F
notes: also called 88
B21: h_Nb2_G30R (VHH)
VHH: B2 chain with G30R
notes: also called 87
B22: h_Nb2_G30W (VHH)
VHH: B2 chain with G30W
notes: also called 89
B23: h_Nb2_G101R (VHH)
VHH: B2 chain with G101R
notes: also called 90
B24: h_Nb2_G101W (VHH)
VHH: B2 chain with G101W
notes: also called 91
B25: h_Nb2_G101Y (VHH)
VHH: B2 chain with G101Y
notes: also called 92
B26: h_Nb2_P100E (VHH)
VHH: B2 chain with P100E
notes: also called 97
B27: h_Nb2_P100Q (VHH)
VHH: B2 chain with P100Q
notes: also called 96
B28: h_Nb2_P100R (VHH)
VHH: B2 chain with P100R
notes: also called 95
B29: h_Nb1 VHH (VHH)
VHH: B1 chain
B30: h_Nb13 VHH (VHH)
VHH: DVQLQESGGGLVQPGGSLRLSCAASGSIFSINAMGWYRQAPGKSRELVAAITSGGSTNYADSVKGRFTISRDTAKNTVYLLMNSLEPEDTAVYYCNVERRRPPHYLSEYDFDWGQGTQVTVSS
B31: h_Nb26 VHH (VHH)
VHH: B30 VHH with S25P, S30R, S44Q, K64Q, T73N, L81Q, E86K, L106Y, E108D
B32: h_Nb30 VHH (VHH)
VHH: DVQLQESGGGLVQPGESLRVSCAASGFTFSNYYMTWVRQAPGKGLEWVSFLNPSSSERFYADSVKGRFTISRDNAKNTLDLLMHSLKPEDTALYYCARHLKYNWAPNYDYWGQGTQVTVSS
B33: h_Nb2 VHH (VHH)
VHH: B2 chain
B34: h_Nb4 VHH (VHH)
VHH: DVQLQESGGGLVQAGGSLRLSCAAPSRMFSGYTMGWYRQAPGKQRELVAQIANGGFTDYIDSVKGRFSISRDTVLNMMYLQMNSLKPEDTAVYYCNLVLVNGIPTRNWGQGTQVTVSS
B35: h_Nb5 VHH (VHH)
VHH: DVQLQESGGGAVQSGESLRLSCAASGRDLMFYDVAWFRQAPGKEREGVSYIRSSGTLTKYADSVKGRFTISRDNDKNTVSLQMNSLNPEDTAKYYCAARLQSATSHSDLREDEFNSWGQGTQVTVSS
B36: h_Nb9 VHH (VHH)
VHH: DVQLQESGGGLVQPGGSLRLSCASSGSIFGLGVKGWYRQPPGNQREMVAQIISGGRISYADSVKGRFTISRDNAKNTVYLQMNSLKPEDTAVYYCNAWGPGQRNYWGRGTQVTVSS
B37: h_Nb12 VHH (VHH)
VHH: DVQLQESGGGLVQAGGSLRLSCAASGRTFSSRAMGWFRQAPGKEREFVAAISGSGRNTYYADSVKGRFTISRDNAKNSVNLQMNSLKPEDTAVYYCNAAGGGITIATMTQRTQYDYWGQGTQVTVSS

Target: T1, human PD-L1 on stably transfected cell line HEK293T/hPD-L1 (human, UniProt Q9NZQ7 19-290)
T1 construct: whole, on cells
Assay: flow cytometry on HEK293T/hPD-L1 cells, 10 ug/ml nanobody, anti-human IgG Fc (FITC)
Method: The stably transfected cell line HEK293T/hPD-L1 was digested and centrifuged, and the supernatant was removed. The cells were washed once with PBS and the cell density was adjusted to 2.5×10⁶ cells/mL. 100 μL of cell suspension was added to each cell sample, i.e., 2.5×10⁵ cells/sample. Different anti-human PD-L1 candidate nanobodies (at a concentration of 10 μg/ml) were added into the samples. The samples were incubated in a 4° C. refrigerator for 20 min and then centrifuged to remove the supernatant, and washed once with PBS. The diluted antibody anti-human IgG Fc (FITC) was used as a secondary antibody to resuspend the above cells. The abtained samples were incubated in a 4° C. refrigerator for 20 min and centrifuged to remove the supernatant. The cells were washed twice with PBS, transferred to a flow tube; and detected on a flow cytometer to obtain the binding activity of the candidate nanobody with human PD-L1, as shown in FIG. 1.

T1 sequence (Q9NZQ7 19-290): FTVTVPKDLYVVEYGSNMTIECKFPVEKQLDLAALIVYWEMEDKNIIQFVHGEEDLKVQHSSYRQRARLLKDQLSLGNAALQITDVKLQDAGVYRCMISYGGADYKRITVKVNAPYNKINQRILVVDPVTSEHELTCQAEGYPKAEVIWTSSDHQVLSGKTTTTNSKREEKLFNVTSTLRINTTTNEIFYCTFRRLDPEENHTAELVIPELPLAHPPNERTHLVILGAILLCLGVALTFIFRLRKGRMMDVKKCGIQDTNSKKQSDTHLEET

B1: binds.
B2: binds.

Target: T2, human PD-L1 protein (ELISA antigen) (human, UniProt Q9NZQ7 19-238, limits assumed)
T2 construct: One molecule is used for both ELISAs; also called PD-L1-biotin protein
Assay: relative to original antibody h_Nb1 (SEQ ID NO. 1); ELISA comparison per Example 10

T2 sequence (Q9NZQ7 19-238 limits assumed): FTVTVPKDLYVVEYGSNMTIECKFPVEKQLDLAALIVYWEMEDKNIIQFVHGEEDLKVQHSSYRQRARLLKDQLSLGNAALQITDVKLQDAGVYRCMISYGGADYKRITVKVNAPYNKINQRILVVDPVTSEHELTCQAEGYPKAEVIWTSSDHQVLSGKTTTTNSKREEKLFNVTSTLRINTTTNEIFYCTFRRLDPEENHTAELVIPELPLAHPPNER

Point of comparison: B12, “Improved value of relative affinity” value 11.7. Against it:
- B3 — lower, 4.12
- B4 — lower, 5.13
- B5 — lower, 4.66
- B6 — lower, 3.31
- B7 — lower, 3.38
- B8 — lower, 3.83
- B9 — lower, 5.12
- B10 — lower, 4.9
- B11 — lower, 4.28
- B13 — lower, 5.8
- B14 — lower, 6.16
- B15 — higher, 12.1
- B16 — lower, 6.16
- B17 — lower, 7.02

Target: T2, human PD-L1 protein (ELISA antigen)
Assay: relative to original antibody h_Nb2 (SEQ ID NO. 5); ELISA comparison per Example 10

Point of comparison: B23, “Improved value of relative affinity” value 6.5. Against it:
- B18 — lower, 1.46
- B19 — lower, 1.44
- B20 — lower, 5.11
- B21 — lower, 6.23
- B22 — higher, 10
- B24 — lower, 5.92
- B25 — higher, 8.48
- B26 — lower, 3.98
- B27 — lower, 3.41
- B28 — higher, 7.21

Target: T2, human PD-L1 protein (ELISA antigen)
Assay: ELISA; PD-L1 protein on NeutrAvidin plate, crude nanobody, anti-HA detection; positive = absorbance more than three times control
Method: After several rounds of panning, TG1 competent cells in the logarithmic phase of growth were infected with the eluted phages, gradiently diluted and spread on the plate for overnight culture. 96 clones were picked and inoculated into a 96-well round-bottom plate with 100 μL of culture medium per well and left to be incubated overnight as the master plate. Then 10 μL of overnight cultured bacterial solution was pipetted into a 96-well deep-bottom plate with 1 mL of culture medium per well to induce nanobody expression which was then subjected to crude purification. The 96-well ELISA plate was coated with 5 μg/mL NeutrAvidin solution at 4° C., 700 rpm, overnight. The next day, 2% skim milk powder was added to block the plate at room temperature and washed 3 times with a solution containing bovine serum albumin BSA. 100 μL 3 μg/mL PD-L1 protein was added and incubated at room temperature for 30 minutes, then washed. The crudely extracted nanobody was added and incubated at room temperature for 1 h followed by washing. Mouse anti-HA primary antibody was added and the mixture was incubated at room temperature for 1 hour followed by washing. Goat anti-mouse alkaline phosphatase-labeled secondary antibody was added and the mixture was incubated at room temperature for 1 hour followed by washing. Alkaline phosphatase colorimetric solution was added for 10 minutes, and the absorption value was detected at 405 nm on a microplate reader. A well with an absorption value that is more than three times the absorption value of the control group is preliminarily determined as a positive well. The positive clones were transferred to a shaking tube for culture in order to extract the plasmid and then subjected to sequencing. Finally, 11 candidate positive clones were obtained.

B29: binds.
B30: binds.
B31: binds.
B32: binds.
B33: binds.
B34: binds.
B35: binds.
B36: binds.
B37: binds.
